Test results as given in article PMC7786285 (Frontiers in Immunology, 2020).

Target: T1, EGFR-ECD-Fc chimera (Homo sapiens, UniProt P00533)
T1 construct: extracellular domain of the epidermal growth factor receptor, as Fc chimera; No catalogue number printed; detected through its Fc with a goat anti-human IgG Fc PE antibody; also called EGFR-Fc chimera; EGFR-Fc; source: bought: R&D
Assay: flow cytometry on cells; yeast cells displaying chimeric Fabs stained with EGFR-ECD-Fc chimera (100, 10 and 1 nM; sorting 250 nM down to 1 nM), detected with goat anti-human IgG Fc PE
Settings: one partner purified

Row | binding result | Binder
1 | binds | FEB4 VH paired with the VL of H1, Fab displayed on yeast (Fab, V domains shown) VH: AVTLDESGGGLQTPGGALSLVCKASGFTFSSHGMLWVRQAPGKGLEFVAGISTDGSSTSYGAPVKGRATISRDNGQSTVRLQLNNLRAEDTGTYYCAKDAYRCRNCAEDIDAWGHGTEVIVSS VL: ALTQPSSVSANPGETVKITCSGGYSYYGWIQQKSPGSAPVTLIYNNDNRPSGIPSRFSGSTSGSTSTLTITGVQAEDEAVYYCGSYDGSAGIFGAGTTLTVL
2 | binds | FEB4 VH paired with the VL of H3, Fab displayed on yeast (Fab, V domains shown) VH: AVTLDESGGGLQTPGGALSLVCKASGFTFSSHGMLWVRQAPGKGLEFVAGISTDGSSTSYGAPVKGRATISRDNGQSTVRLQLNNLRAEDTGTYYCAKDAYRCRNCAEDIDAWGHGTEVIVSS VL: ALTQPSSVSANPGETVEITCSGGGSNSYYGWYQQKAPGSAPVTVIYDNTNRPSNIPSRFSGSLSDSTNTLTITGVQADDEAVYFCGNEDNTDSYVGIFGAGTTLTVL
